# Peptide text beside a SMILES is read from it.
# T1: zfPepT1b (Danio rerio, UniProt Q7SYE4)
# T1 construct: gene slc15a1b; complete ORF in pSPORT1, cRNA-injected Xenopus laevis oocytes
# T1 sequence (Q7SYE4 1-718): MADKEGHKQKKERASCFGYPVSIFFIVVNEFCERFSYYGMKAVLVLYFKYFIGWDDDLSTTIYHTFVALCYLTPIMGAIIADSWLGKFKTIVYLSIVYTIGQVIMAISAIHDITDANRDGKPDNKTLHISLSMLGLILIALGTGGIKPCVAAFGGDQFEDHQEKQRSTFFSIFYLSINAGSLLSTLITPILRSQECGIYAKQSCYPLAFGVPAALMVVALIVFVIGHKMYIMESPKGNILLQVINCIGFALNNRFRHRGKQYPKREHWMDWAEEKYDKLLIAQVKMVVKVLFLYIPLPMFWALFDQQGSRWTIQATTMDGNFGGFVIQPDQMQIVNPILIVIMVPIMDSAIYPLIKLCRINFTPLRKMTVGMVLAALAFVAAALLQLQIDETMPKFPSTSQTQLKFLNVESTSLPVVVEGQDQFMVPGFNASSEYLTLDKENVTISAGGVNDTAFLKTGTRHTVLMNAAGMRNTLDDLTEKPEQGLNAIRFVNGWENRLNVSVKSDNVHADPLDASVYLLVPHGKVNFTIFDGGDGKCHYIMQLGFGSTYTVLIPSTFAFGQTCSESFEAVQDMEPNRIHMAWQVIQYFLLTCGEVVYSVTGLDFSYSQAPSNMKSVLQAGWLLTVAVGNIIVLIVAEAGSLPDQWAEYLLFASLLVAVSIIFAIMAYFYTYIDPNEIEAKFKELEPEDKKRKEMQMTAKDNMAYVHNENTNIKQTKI
# B1: asPepT1b (Salmo salar) (protein)
# chain: MTDIDVKKSKRKVDVCGYPLSIFFIVVNEFCERFSYYGMRAVLVLYFRYFLKWDDDLSTSIYHTFIALCYLTPILGAIVADSWLGKFKTIVYLSIVYTVGQVVMAVSAIHDITDTDRDGTPDNMTFHVAMSMVGLFLIALGTGGIKPCVAAFGGDQFEEHQEKQRSTFFSIFYLSINAGSLLSTVITPILRGQECGIHSQQKCYPLAFGVPAALMVVALIVFIMGSGMYNKTAPKGNIMLEVCKCIGFAVKNRFRHRSKKFPKREHWMDWADEKYDKLLVAQVKMVLKVMFLYIPLPMFWTLFDQQGSRWTLQATTMDGNFGILTVQPDQMQTVNPILILALVPIMDSLVYPLIKKCHLNFTPLKRMTVGMLIAALAFVAAALLQLQIDQTLPKLPQGVAGQVKFLNLNSAPLTLTIDGTIDVSVPAHQVNTGDYLTFDKSVRVVFNKNTSTGTDLILMSQTRRTALVSPTLDMNLVYDLSKKPDDGMNAIRFVNGLGSALNVTLGVGDIAPLAVSNYSLVPQGKAEFTIMNSGGASCLYSIDLGFGSAFTLLIPSTFTIGSPDCWQAIQVVEDIQPNTIHMGWQIPQYFLMTGGEVVFSVTGLEFSYSQAPSNMKSVLQAGWLFTVAVGNIIVLIVAEAAQLPDQWAEYILFASLLVVVCIVFAIMSYFYTYTDPAEIEAEFRQPEHGPERKRDQVEMERKDSDCSKSSKGSDMKKKDSVVEQLNQEVKQSKM
# notes: complete ORF in pSPORT1, cRNA-injected Xenopus laevis oocytes
# B2: asPepT1a (Salmo salar) (protein)
# chain: MTDEEVVKKGKSKEVCGYPLSIFFIVVNEFCERFSYYGMRAVLVLYFRYFLRFDDDLATSIYHTFVALCYLTPILGAVVADSWLGKFKTIIYLSIVYAIGQVVMAVSAIHDITDTDRDGTPDNLTLHIVLSMVGLLLIALGTGGIKPCVAAFGGDQFQDHQAKQRSTFFSVFYLCINGGSLLSTIITPILRGQECGIHSQQKCYPLAFGVPAALMVVALVVFIIGSGMYHKTEPQGNIMLDVCKCIGFAVKNRFRHRSSSYPKRTHWMDWAEEKYEKLLIAQIKMVLKVLFLYIPLPMFWTLFDQKGSRWTLQATTMDGNFGSLILQPDQMQTVNPILILTLVPIMDSVVYPLIKKCGLNFTPLRRMTVGMFLAAMAFVAAALVQIQIDKTLPTFPSSSQSQLKLLNMGSIPLTVTLPNNDPFVIEAAKANANYLTFEEESINVSFQSPAISRTISLAKGKRQTLLIPSNLSAPMWEMTDDLMAKPEQGANAIRFVNGMAGAVNVSTFGSIEYSSASNYSLISNGKATFTITNGANTCEYSREFGFGSSYTLLIPSHFAWGLTCSESISGVEDIQPNSFHMGWQIPQYFLITCGEVVFSVTGLEFSYSQAPSNMKAVLQAGWLFTVAIGNFIVLIVAEIAQIEEQWAEFVLFASLLVAVCVIFSIMAYFYTYMDPAEIEAQFTDNGGKEESDKEELQMQKKDVVDHHNEDDEAKQTKM
# B3: zfPepT1a (Danio rerio) (protein)
# chain: MPDSKMDETKKKKKKTAECCGYPISIFFIVVNEFCERFSYYGMRAVLVLYFRYFLLWDDDLATSIYHAFVALCYLTPILGAIIADSWLGKFKTIIYLSIVYAVGQVVMAVSTIHDITDANRDGTPDNFTLHIALSMLGLVLIALGTGGIKPCVAAFGGDQFQEHQSRQLNTFFSVFYLCINAGSLLSTLITPVLRAQECGIHTQQQCYPLAFGVPAALMVVSLVVFIAGSGMYTKTAPEGNIMGSVCKCIWFALNNRFRHRSDIYPKREHWMDWAEEKYDKLLIAQIKMVLKVLFLYIPLPMFWTLFDQKGSRWTLQATTMTGDFGGFVLQPDQMQTVNPILILTLVPIMDRIIFPLIKKCGLNFSPLKRMTVGMLFAATAFIAAALVQMEIDKTLPNFPSSSESQLKVVNMHSESLIVTVPSQEPLLIGSFESSPDYITFDQQDIRLAFNTTPEINKDLSLIKGSRQTLIIPSEPAEMYLKEDIKSKPKEGKNAVRFVNGWTAYLNITNLESSLQPSETSNYTLVSQGMRKFTLTDGIQSCEFSRKFGFGSSYTFLIPSDLFSTDCESIKEIEDMQPNSVHMALQIPQYFLITTGEVMFSVTGLQFSYSQAPKNMKSVLQAGWLCTNAVGNIIVLIVAELGKLPKQWAEYVLFASLLVAVSIIFSIMAYFYTYIDPAEIEAEILKQQETDPDKKKKKETLEMEEKENEQEIKQTKI
# notes: as for B1
# Columns and labels:
# zfPepT1b = biological target: T1, zfPepT1b; assay: two-electrode voltage clamp, transport current, Xenopus oocytes; type: cell-based; details: 1 mmol/L, pH 7.6, -60 mV
# [1] = substrate: NCCCC[C@H](N)C(=O)NCC(=O)O; assay: as above; type: cell-based, Salmo salar; details: pH 7.6, -140 mV, strongly voltage dependent
# [2] = substrate: NCCCC[C@H](N)C(=O)NCC(=O)O; assay: cells, lysate or membranes; details: pH 7.6, -140 mV, estimate, saturation not reached up to 30 mmol/L
# [3] = substrate: NCC(=O)N[C@@H](CC(=O)O)C(=O)O; assay: two-electrode voltage clamp, transport current, Xenopus oocytes; type: cell-based, Danio rerio; details: pH 7.6, -60 mV, 18 degC incubation of oocytes, proton-coupled transport, 18.0 °C
# From the text: (§1) two-electrode voltage clamp, transport current, Xenopus oocytes on zfPepT1a
# [4] = substrate: NCCCC[C@H](N)C(=O)NCC(=O)O; assay: as above; type: cell-based, Danio rerio; details: pH 7.6, -60 mV
# From the text: as §1
molecule,measurement,setting,value
CSCC[C@H](NC(=O)[C@@H](N)CCCCN)C(=O)O [Lys-Met],"two-electrode voltage clamp, transport current, Xenopus oocytes",zfPepT1b,in zebrafish PepT1b Lys-Met and Met-Lys show comparable currents
NCC(=O)N[C@@H](CCC(N)=O)C(=O)O [Gly-Gln] (H-Gly-Gln-OH),"two-electrode voltage clamp, transport current, Xenopus oocytes",zfPepT1b; reference substrate,Gly-Lys and Lys-Gly currents are significantly reduced in amplitude if compared to those generated by Gly-Gln
B1,K0.5,[1],0.18 ± 0.01 mmol/L
B2,K0.5,[2],6.33 ± 0.78 mmol/L
B3,K0.5,[3],5.89 ± 2.14 mmol/L
same,K0.5,[4],18.35 ± 3.51 mmol/L

# From article PMC10475540, “The teleost fish PepT1-type peptide transporters and their relationships with neutral and charged substrates” (Frontiers in Physiology, 2023)
